Measured values reported in PMC3656419 (Journal of molecular biology, 2008).

B1: native EcMenD (Escherichia coli 2-succinyl-5-enolpyruvyl-6-hydroxy-3-cyclohexadiene-1-carboxylate synthase), N-terminal hexahistidine-tagged (enzyme, E. coli (K12), UniProt P17109 1-556, looked up)
chain: MSVSAFNRRWAAVILEALTRHGVRHICIAPGSRSTPLTLAAAENSAFIHHTHFDERGLGHLALGLAKVSKQPVAVIVTSGTAVANLYPALIEAGLTGEKLILLTADRPPELIDCGANQAIRQPGMFASHPTHSISLPRPTQDIPARWLVSTIDHALGTLHAGGVHINCPFAEPLYGEMDDTGLSWQQRLGDWWQDDKPWLREAPRLESEKQRDWFFWRQKRGVVVAGRMSAEEGKKVALWAQTLGWPLIGDVLSQTGQPLPCADLWLGNAKATSELQQAQIVVQLGSSLTGKRLLQWQASCEPEEYWIVDDIEGRLDPAHHRGRRLIANIADWLELHPAEKRQPWCVEIPRLAEQAMQAVIARRDAFGEAQLAHRICDYLPEQGQLFVGNSLVVRLIDALSQLPAGYPVYSNRGASGIDGLLSTAAGVQRASGKPTLAIVGDLSALYDLNALALLRQVSAPLVLIVVNNNGGQIFSLLPTPQSERERFYLMPQNVHFEHAAAMFELKYHRPQNWQELETAFADAWRTPTTTVIEMVVNDTDGAQTLQQLLAQVSHL
B2: SeMet EcMenD (selenomethionine derivative of Escherichia coli MenD, histidine tag removed by proteolysis) (enzyme, E. coli (K12))
chain: GHMSVSAFNRRWAAVILEALTRHGVRHICIAPGSRSTPLTLAAAENSAFIHHTHFDERGLGHLALGLAKVSKQPVAVIVTSGTAVANLYPALIEAGLTGEKLILLTADRPPELIDCGANQAIRQPGMFASHPTHSISLPRPTQDIPARWLVSTIDHALGTLHAGGVHINCPFAEPLYGEMDDTGLSWQQRLGDWWQDDKPWLREAPRLESEKQRDWFFWRQKRGVVVAGRMSAEEGKKVALWAQTLGWPLIGDVLSQTGQPLPCADLWLGNAKATSELQQAQIVVQLGSSLTGKRLLQWQASCEPEEYWIVDDIEGRLDPAHHRGRRLIANIADWLELHPAEKRQPWCVEIPRLAEQAMQAVIARRDAFGEAQLAHRICDYLPEQGQLFVGNSLVVRLIDALSQLPAGYPVYSNRGASGIDGLLSTAAGVQRASGKPTLAIVGDLSALYDLNALALLRQVSAPLVLIVVNNNGGQIFSLLPTPQSERERFYLMPQNVHFEHAAAMFELKYHRPQNWQELETAFADAWRTPTTTVIEMVVNDTDGAQTLQQLLAQVSHL
modifications: selenomethionine in place of methionine (full incorporation of SeMet)

Tests used:
[1] = target: the molecule itself; assay: SEC
[2] = target: the molecule itself; assay: AUC
[3] = target: the molecule itself; assay: crystal structure

Protein | stoichiometry N [1] | stoichiometry N [2] | stoichiometry N [3]
B1 | 2 |  | 
B2 | 2 | 3 | 4
